B1: TCN-546 (5089_L08) (antibody, V domains shown)
VH: QVQLQQWGAGLLKPSETLSLTCGVYGGSLSDYYWSWIRQPPGKGLEWIGEINHSGGTNYNPSLKRRVTISVDTSKKQFSLKMNSVTAADTAVYYCARGTDPDTEVYCRAGNCAAFDFWGQGTLVTVSS
VL: EIVLTQSPGTLSLSPGERATLSCRASHFVIGRAVAWYQQKPGQAPRLLIYGASSRATGIPDRFSGSGSGTDFTLTISRLETEDFAVFYCQHYGSSPRYAFGQGTKLEIK
B2: TCN-539 (5056_A08) (antibody, V domains shown)
VH: QVQLVESGGGVVQPGRSLRLSCAASEITFITYAMHWVRQAPGKGLEWVALISDDGSNKFYADSVKGRFTISRDNSKNTLYLQMNSLRAEDTAAYYCAREGVYFDSGTYRGYFDYWGQETLVTVSS
VL: EIVLTQSPATLSLSPGERATLSCRASQSVSSYLAWYQQKPGQAPRLLIYDASNRATGIPARFSGSGSGTDFTLTISSLEPEDFAVYYCQQRSHWPPITFGQGTRLEIK
B3: TCN-534 (5249_B02) (antibody, V domains shown)
VH: QVQLVQSGAEVKKPGSSVKVSCRESGGTFNGYTITWVRQAPGQGLEWMGGIIPMMGTVNYAQKLQGRVTITTDYFTKTAYMDLNNLRSEDTAMYYCVKIRYTGQQLLWGQGTLVTVSS
VL: DIQMTQSPSTLSASIGDRVTITCRASQSIASWLAWYQQKPGKAPKLLIYEAVNLESGVPSRFSGSGSGTDFTLTISSLQPDDFATYFCQHYGTISQTFGGGTKVEIK
B4: TCN-563 (5237_B21) (antibody, V domains shown)
VH: QVQLAQSGAEVKRPGSSVKVSCTASGGIFRKNAISWVRQAPGQGLEWMGGIIAVFNTANYAQKFQGRVKITADESGNTAYMELSSLRSDDTAVYYCASHPKYFYGSGSYPDFWGQGTLVTVSS
VL: QSALTQPRSVSGSPGQSVTISCTGSSSDVGASNSVSWYQQHPGKAPKLVIYDVTERPSGVPHRFSGSKSGNTASLTVSGLQPEDEADYFCCAYGGKYLVVFGGGTKVTVL
B5: TCN-548 (5092_P01) (antibody, V domains shown)
VH: QVQLQESGPGLVKPSETLSLTCTVSSGPMSDYYWSWIRQPPGKGLEWIGHVSVSHGGRTKSNPSVMSRVTISVETSKNQFSLKLTSVTAADTAVYYCARLNYYDRSGYHSPDGPSNNWFDPWGQGTLVTVSS
VL: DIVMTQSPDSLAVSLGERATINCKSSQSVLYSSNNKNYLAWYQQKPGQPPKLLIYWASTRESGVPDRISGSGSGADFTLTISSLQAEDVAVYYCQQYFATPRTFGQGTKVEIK
B6: TCN-530 (5248_H10a) (antibody, V domains shown)
VH: QVQLVQSGAEVRKPGSSVKVSCKASGGPFMSYAIGWVRQAPGQGLEWMGGINPVFGRPHYAQKFQGRVTIATDDSTKTSYMELSSLTSEDTGMYYCASRYSRSSPGTFESWGQGTLVTVSS
VL: EIVMTQFPATLSVSPGERVTLSCRASQSVSNNLAWYQQKPGQPPRLLIYDASTRATGVPAKFSGTGSGTEFTLSISSLQSEDFAVYYCQQYHNWPPSYSFGLGTKLEIK
B7: TCN-540 (5060_F05) (antibody, V domains shown)
VH: QVQLVQSGGGVVQPGRSLRLSCAASGFTFSSYAMHWVRQAPGKGLEWVAIISYDGNDQYYTDSVKGRFTISRDSSKVYLQMHRLRPEDTAVYYCAKEFETSGYFHGSFDYWGQGILVTVSS
VL: QSALTQPASVSGSPGQSITISCTGTSSDVGGYNYVSWYQQHPGKAPKLLIYEVTNWPSGVSNRFSGSKSGNTASLTISGLQAEDEADYYCSSYAGSSTWVFGGGTRVTVL
B8: TCN-526 (5084_C17) (antibody, V domains shown)
VH: EVLMVESGGGLVQPGGSVRLSCVASGFSFSSHWMTWVRQAPGKGLEWVANIEDDGGDKYYVDSVKGRFIISRDNAKNSVYLQMNSLRAEDTAVYFCARGSGSSDRSDYDPHYYYYLDVWGKGATVTVSS
VL: DIQLTQSPSSLSASVGDRVTITCRASQSISRYLNWYQQKPGKAPKLLLFAASTLLDGVPSRFSGSGSGTDFTLTISSLQPEDFATYYCQRNHSPSWTFGQGTRVEIK
B9: TCN-528 (5087_P17) (antibody, V domains shown)
VH: QVQLVQSGSEVKKPGASVKVSCKASGYTFTNYDINWIRQAPGQGLEWMGWINPNSGTTGSAQRFQGRVTITVDTSITTVYMELSSLRSDDTAIYYCARGRELLRLQHFLTDSQSERRDCFDPWGQGTLVTVSS
VL: DIQMTQSPSSLSASVGDRVTITCRANQDIGIYLNWYQQNPGKVPKLLLHGASSLQGGVPSRFSASGSGTDFTLTIHSLQPEDLATYYCQQSRRLPYTFGQGTRVELK
B10: TCN-532 (5262_H18) (antibody, V domains shown)
VH: QVQLQESGPGLVKPSETLSLTCTVSGGSVSSETYYWSWIRQPPGKGLEWIGYIYYIGNTDYRPSLKSRVTISLDTSKNQFSLKLSSVTAADTAVYYCARGAYYDSSGYPAFYIWGQGTMVTVSS
VL: QSVLTQPPSVSGAPGQRVTISCTGSSSNIGSDYDVHWYKQLPGTAPKLLIFGNSNRPSGVPDRFSGSKSGTSASLAITGLQAEDEADYYCQSYDSSLSGFHVFGSGTKVTVL
B11: TCN-545 (5082_I15) (antibody, V domains shown)
VH: QVQLQQWGAGLLKPSETLSLSCAVFGGSFSDYYWTWIRQPPGKGLEWIGEIKHSGRTNYNPSLESRVTISVDTSKNQFSLKLSSVTAADTAIYYCARGTDPDTEGYCRSGSCSAFDFWGQGTLVTVSS
VL: EIVLTQSPGTLSLSPGERATLSCRASHFVNYRSLAWYQQTPGQVPRLLIYGASTRATGIPDRFSGSGSGTDFTLTISRLEPEDFAVYFCQQYGGSPRYTFGQGTRLEIK
B12: TCN-523 (5248_A17) (antibody, V domains shown)
VH: QVQLVQSGAEVKKPGSSVKVSCKASGGSFSNYAFSWVRQAPGQGLEWMGGTIPLLGTTNYAQKFQGRVTISADQFTSTAYMELGSLRSEDTAVYYCTRRKMTTAFDSWGQGTLVTVSS
VL: QPVLTQPPSASASLGASVTLTCTLSSAYSNYKVDWYQQRPGKGPRFVMRVGTGGIVGSKGDGIPDRFSVLGSGLNRYLTIKNIQEEDESDYHCGADHGSGSNFVSPYVFGGGTKLTVL
B13: TCN-535 (5246_P19) (antibody, V domains shown)
VH: QVQLVQSGSEVKKPGTSVKVSCTASGSVFTNYGISWVRQAPGQGLEWMGGIIPLFGAAKYAQKFQGRVTITADESTKTVYMELSRLTSKDTAIYFCAKAPRVYEYYFDQWGQGTPVTVSS
VL: EIVLTQSPGTLSLSPGERATLSCRASQSVSSSQLAWYQQKPGQAPRLIIYGASTRATGIPDRFSGSGSGTDFTLTIGRLEPEDFAVFFCQQYSTSPPTFGQGTKVDFK
B14: TCN-544 (5082_A19) (antibody, V domains shown)
VH: QVQLQESGPGLVKPSETLSLTCTVSRGSIGHYFWSWIRQPPGKGLEWIGYISYSGSTKYNPSLRSRVTISVDTSKNQFSLNLNSVTATDTALYYCAREDYDILTGAGPGMEVWGQGTTVTVSS
VL: QSMLTQPPSASGTPGQRVTISCSGSSSNIGSNTVNWFKHLPGTAPKLLIYRNDLRPSGVPDRFSGSKSGTSASLAISGLQSEDEADYYCATWDDSLNGFYVFGTGTKVTVL
B15: TCN-531 (5091_H13) (antibody, V domains shown)
VH: EVQLVESGGDLVQPGRSLKLSCTGSGFTFGDYGVTWVRQAPGKGLEWVGFIRTRPWGGTADTAASVKGRFTISRDDSKSLAYLQMNSLKTEDTAVYYCCRDAPPNVEVASMTNWYFDLWGRGTLVTVSS
VL: DIQLTQSPSSLSASVGDRVTITCRASQGILNCLAWYQQKPGKVPNLLMYAASTLQSGVPSRFSGSGFGTDFTLTISSLQPEDVATYYCQTYGGVSTFGGGTKVEIR
B16: TCN-542 (5079_A16) (antibody, V domains shown)
VH: QVQLQESGPGLVKPSQTLSLTCTVSGGSISSGNYYWNWVRQHPGKGLEWIGYIYYRGSTFYNPSLKSRVTISIDTSKNQFSLRLSSVTAADTAVYYCAKDTRSSLDNYQYGMDVWGQGTTVTVSS
VL: QTVVTQEPSLTVSPGGTVTLTCASSTGAVTSSYFPNWFQQKPGQAPRPLIYSTTIRHSWTPARFSGSLLGGKAALTLSGVQPEDEADYYCLLYSGGDPVAFGGGTKLTVL
B17: TCN-547 (5092_F11) (antibody, V domains shown)
VH: QVQLQESGPGLVKPSQTLSLTCTVSGDSISSVDHYWSWIRQHPVKGLEWIGFMYYSASTYYNPSLKSRVTISTDTSKNQFSLRLSSVTAADTAVYYCARGTCAGDCSLHYYYYGLDVWGQGRTVTVSS
VL: DIQMTQSPSSLSASVGDRVTITCRASQSISSYLNWYQHKPGKAPKVLMYAVSILQSGVPSRFSGSGSGADFTLTISSLQPEDFATYYCQQSYSSPLTFGGGTKVEIK
B18: TCN-533 (5256_A17) (antibody, V domains shown)
VH: QVQLVQSGADVKKPGSSVTVSCKASGGSFSNYGINWVRQAPGQGLEWMGGIIPLINAPNYAPKFQGRVTITADMFSNIVSLQLTSLRTDDTAVYYCARRKMTTAIDYWGQGTLVTVSS
VL: QPVLSQPPSASASLGASVTLTCTLSSGFDNYQVAWYQQRPGKGPRFVMRVGNGGNVASKGDGIPDRFSVSGSGLNRYLTIKNIQEDDESDYYCGADHGSGNNFVSPYVFGGGTKLTVL
B19: TCN-521 (3280_D18) (antibody, V domains shown)
VH: EVQLVQSGGGLVQPGGSLRLACVVSGFTVTSNYITWVRQAPGKGLEWVSVIYSHGRAYYSASVNGRFTISRHTSKNTVYLEMNSLRPEDTAVYYCAGGGLVGGYDEYFFDYWGQGTLATVSS
VL: ETVLTQSPGTLSLTPGERATLSCRVGQSVSGSHLAWYQQKPGQAPRLLIYGASSRATGIPDRFGGSVSGTDFTLTISRLEPEDSAVYYCQQYGDSRYTFGQGTKLEIK
B20: TCN-543 (5081_G23) (antibody, V domains shown)
VH: QVHLVQSGAEVRKPGDSVKVSCKTSGYTFSTYPVAWVRQVPGQGLEWMGWISTYNGNTNFAQNFQGRVTLTTDTTTNTAYMEVRSLKFDDTAVYYCARVEGSYRDFWNNQNRFDPWGQGTLVTVSS
VL: SYVLTQPPSVSVAPGQTARISCGGSNIGGKSVHWYQQKPGQAPVLVVYDDSGRPSGIPERFSGSNSGDTATLTISRVEAGDEADYFCQVWDNFGGVFGTGTKVTVL
B21: TCN-527 (5086_C06) (antibody, V domains shown)
VH: QVQLQESGPGLVKPSETLSLNCAVSGGSISNYYWSWIRQPPGKGLEWIGYISYNGRPKYNPSLTSRVTISVDTSKDQFSLELRSVTAADTALYYCARETRFGELLSPYDAFEIWGQGTMVTVSS
VL: DIQMTQSPSSLSASVGDRVTMTCRASQNIRSYLNWYQQRPGTAPKLLIYAASTLHSGVPSRFSGGGSGTDFTLTINNLQPEDFASYYCQQSYDNPQTFGQGTKVEIK
B22: TCN-536 (5095_N01) (antibody, V domains shown)
VH: QVQLQQWGAGLLKPSETLSLTCAVYGGSFSVSGYYWSWIRQPPGRGLEWIGEISHGGSTNYNPSLKSRVTISVDTTKNQFSLRLSSVTAADTAVYYCARGTDPDTEVYCRVGNCAAFDYWGQGSLVTVSS
VL: EIILAQSPGTLSLSPGERATLSCRASQFVSTRSLAWYQQRPGQAPRLLIYGASSRATGIPDRFSGSGSGTDFTLTISRLEPEDFAVYYCQHYGYSPRYAFGQGSKVEIK

Target: Hemagglutinin of influenza A/Solomon Islands/3/06 (H1N1), on inactivated whole virions (Influenza A virus A/Solomon …)
Experiment: ELISA, B cell culture supernatant on inactivated whole virions

Row | Binder | OD450
1 | B1 | 1.95 OD450
2 | B2 | 0.06 OD450
3 | B3 | 3.55 OD450
4 | B4 | 3.62 OD450
5 | B5 | 0.09 OD450
6 | B6 | 3.52 OD450
7 | B7 | 0.07 OD450
8 | B8 | 0.06 OD450
9 | B9 | 3.62 OD450
10 | B10 | 0.06 OD450
11 | B11 | 3.32 OD450
12 | B12 | 3.47 OD450
13 | B13 | 3.43 OD450
14 | B14 | 0.32 OD450
15 | B15 | 3.23 OD450
16 | B16 | 3.66 OD450
17 | B17 | 0.06 OD450
18 | B18 | 3.54 OD450
19 | B19 | 3.7 OD450
20 | B20 | 3.63 OD450
21 | B21 | 3.03 OD450
22 | B22 | 3.63 OD450
